The text below walks through data of patent US5935927A, “Compositions and methods for stimulating amyloid removal in amyloidogenic diseases using advanced glycosylation endproducts” (The Picower Institute For Medical Research, priority 1996, dated 1999).

Read-outs that look alike come from different tables or passages of the source.

The target in one series is T1, soluble βAP (Homo sapiens, UniProt P05067).
T1 construct: Co-incubation of 400 μM βAP 1-28 in 0.1M sodium acetate, pH 7.0, with 100 mM glucose; purchased Bachem (Torrance, Calif.); host or cells: chemical synthesis
In words: Thioflavin-T fluorescence assay of βAP aggregation and seeding. It is filed as biochemical. The settings on record: for effect on fluorescent aggregate formation of βAP: 400 μM βAP 1-28, 0.1M sodium acetate pH 7.0, 100 mM glucose, 0.05M aminoguanidine, FIG. 4; for spontaneous formation of Thioflavin-T fluorescent aggregates: FIG. 1. The source says:
Aggregation and Seeding Reactions. Synthetic, HPLC-purified peptides representing the first 28 (βAP 1-28) and the first 40 amino acids (βAP 1-40) of the 42 amino acid βAP were obtained from Bachem (Torrance, Calif.). Aggregation of soluble βAP 1-28 or βAP 1-40 at different concentrations was initiated by addition of 0.1M sodium acetate (NaOAc) at the indicated pH (between 4.7 and 7.5) and continued for the indicated times. Quantitative aggregate formation with sub-millimolar βAP concentrations was detected using the procedure of LeVine (1992, Protein Science 2:404-410). Briefly, fluorescence of aggregates added to 10 μM Thioflavin-T (Aldrich)/50 mM potassium phosphate buffer, pH 6.0, was measured upon excitation at 450±5 nm and detection of emission at 482±10 mn on a Perkin Elmer LS-50B spectrofluorimeter. Where indicated, small amounts of pre-formed aggregates or "nucleation seeds" were added to the soluble βAP and aggregation initiated with 0.1M sodium acetate.
Generations of "Seeds". […] After incubation, protein concentrations of seed preparations were measured and adjusted with buffer to 150 μM final concentration. […] Lysines at positions 16 and 28 of βAP contain primary amino groups which may react with reducing sugars to generate advanced glycosylation endproducts of AGEs. Indicated amounts of glucose and/or aminoguanidine, a potent inhibitor of advanced glycation and crosslink formation (Brownlee et al., 1986, Science 232:1629-1632), were also added to solutions of βAP before sodium acetate in some experiments.

Series [1] concerns insulin-producing β-cells of the adult pancreas. To be noted: human cells; Lorenzo et al. 1994; cited from earlier work.
For series [2] the test system is unchanged. The settings on record: rat cells; Lorenzo et al. 1994; cited from earlier work.

T1 sequence (P05067 672-699): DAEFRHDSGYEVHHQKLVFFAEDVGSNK

Take `N=C(N)NN` [aminoguanidine]: at soluble βAP, the “effect on fluorescent aggregate formation of βAP” value is on record as “can inhibit the AGE-enhanced aggregation of βAP”. `O=C[C@H](O)[C@@H](O)[C@H](O)[C@H](O)CO` [glucose]: on soluble βAP, the “effect on fluorescent aggregate formation of βAP” value is “stimulates fluorescent aggregate formation”. Consider “human amylin fibrils: fibrils of the 37 amino acid islet amyloid polypeptide (IAPP), amylin (KCNTATCATQRLANFLVHSSNNFGAILSSTNVGSNTY; Islet amyloid polypeptide fibrils; UniProt P10997 34-70, looked up)”, for which the “toxicity to β-cells” value in series [1] and in series [2] was “toxic” throughout. Turning to “βAP 1-28: synthetic peptide representing the first 28 amino acids of the 42 amino acid βAP”, the “spontaneous formation of Thioflavin-T fluorescent aggregates” value is “spontaneously and rapidly formed Thioflavin-T fluorescent aggregates within minutes” with soluble βAP (600 μM, pH 7.2); “aggregated very slowly with a considerable lag before fluorescent aggregates were measurable” with soluble βAP (concentrations below 300 μM).
